Assay [1] deals with T1, CaptureSelect Kappa XL ligand.
T1 construct: also called Biotin-KappaXL; Kappa XL column
As to the kind of experiment: ELISA, antibody titrated on goat anti-human-IgG, Biotin-KappaXL at 1 ug/ml. The procedure: Binding of the light chain Fab region formats of Table 1a for exemplified IgG hetermabs to Kappa XL ligand may be assessed via ELISA. Briefly, 96-well flat bottom ELISA plates are coated with 2 ug/mL goat anti-human-IgG protein at 100 ul/well and incubated overnight at 4° C. The following day, plates are washed 3× with wash buffer (0.05% PBS-Tween 20) and blocked for 1 hr with blocking buffer (casein, 200 μL/well) at room temperature (RT). Plates are washed 3× with wash buffer, and binding proteins (as shown in Table 5) are added at 10 μg/mL and serially diluted at 1:3 at 100 uL/well in DPBS (Dulbecco's HyClone). Plates are incubated at RT for 1 hr, are washed 3× with wash buffer and Biotin-KappaXL is added at 1 ug/ml at 100 uL/well. Plates are then incubated for 1 hr at RT, washed 3×, and 100 uL/well of SA-AP is added to each well and incubated 30 min at RT. Plates are then washed 3×, and 100 uL/well PNAP substrate is added. Reactions are stopped and the optical density is measured using a colorimetric microplate reader set to 405 nm.
(An ELISA detects its analyte on a solid surface through an enzyme-linked reagent.)

The next assay deals with T2, Protein A (UniProt P38507 37-327, biotin (site not stated)).
T2 construct: Reagent; also called Biotin-Protein A; Protein A ligand
As to the kind of experiment: ELISA, antibody titrated on goat anti-human-kappa, Biotin-Protein A at 0.5 ug/ml. Here is the method: Binding of the heavy chain Fc region formats of Table 1b for exemplified IgG heteromabs to Protein A ligand may be assessed via ELISA. Briefly, 96-well flat bottom Elisa plates are coated with 2 ug/mL goat anti-human-kappa protein at 100 ul/well and incubated overnight at 4° C. The following day, plates are washed 3× with wash buffer 0.05% PBS-Tween 20 (PBS-T)) and blocked for 1 hr with blocking buffer (casein, 200 µL/well) at room temperature (RT). Plates are washed 3× with wash buffer, and binding proteins (as shown in Table 4) are added to individual wells at 10 μg/mL and serially diluted 1:3, at a volume of 100 uL/well in PBS-T. Plates are incubated at RT for 1 hr, and washed 3× with wash buffer. Biotin-Protein A at 0.5 ug/ml is added at 100 uL/well and plates are incubated for 1 hr at RT, washed 3×, and 100 uL/well of streptavidin labeled alkaline phosphatase (SA-AP) is added to each well. Plates are incubated 30 min at RT. Plates are then washed 3×, and 100 uL/well of p-Nitrophenyl Phosphate, Disodium Salt (PNAP)(Thermo Fisher Scientific) substrate is added. Reactions are stopped and optical density is measured using a colorimetric microplate reader set to 405 nm.

In assay [2] the target is T1, CaptureSelect Kappa XL ligand. Description: CaptureSelect Kappa XL affinity column after Protein A. An excerpt: Multispecific binding proteins of the present disclosure, in clarified medium or recovered from Protein A purification, may be subjected to a second purification step using a CaptureSelect™ Kappa XL (Thermo Fisher Cat. #494321001) pre-packed affinity column. Briefly, multispecific binding proteins of the present disclosure recovered from Protein A purification are subjected to a Kappa XL affinity column which has been equilibrated with a compatible buffer, such as phosphate buffered saline (PBS) at pH 7.4. The column is then washed to remove nonspecific binding components. The bound multispecific binding protein is eluted, for example, by pH gradient (such as 20 mM Tris buffer pH 7.0 to 10 mM sodium citrate buffer pH 3.0). Binding protein fractions are detected, such as by UV absorbance or SDS-PAGE, and then are pooled.
Percent flow through (% F T) and percent elution of exemplified heteromabs of the present disclosure following kappa XL column purification essentially as described herein is assessed. Briefly, various antibody formats (as set forth in Table 3) are subjected to Kappa XL column. Flow through material is considered to comprise of impurities, such as homodimers, or misassembled antibodies, whereas the Kappa XL ligand bound material (elution material) is considered to be the correctly assembled bispecific antibody.

B1: cMet-BAH10 parental IgG1 heteromab (bispecific antibody)
heavy 1: EVQLVESGGGLVQPGGSLRLSCAASGYTFTSYWLHWVRKAPGKGLEWVGMIDPSNSDTRFNPEFKDRFTISADTSKNTAYLQMNSLRAEDTAVYYCATYRSYVTPLDYWGQGTLVTVSSASTKGPSVFPLAPSSKSTSGGTAALGCLVKDYFPEPVTVSWNSGALTSGVATGPAVLQSSGLYSLSSVVTVPSSSLGTQTYICNVNHKPSNTKVDKKVEPKSCDKTHTCPPCPAPEAAGGPSVFLFPPKPKDTLMISRTPEVTCVVVDVSHEDPEVKFNWYVDGVEVHNAKTKPREEQYNSTYRVVSVLTVLHQDWLNGKEYKCKVSNKALPAPIEKTISKAKGQPREPQVYTLPPSREEMTDNQVSLTCLVKGFYPSDIAVEWESNGQPENNYKTTPPVLMSDGSFFLASKLTVDKSRWQQGNVFSCSVMHEALHNHYTQKSLSLSPGK
light 1: RIQMTQSPSSLSASVGDRVTITCKSSQSLLYTSSQKNYLAWYQDKPGKAPKLLIYWASTRESGVPSRFSGSGSGTDFTLTISSLQPEDFATYYCQQYYAYPWTFGQGTKVEIKRTVAAPSVFIFPPSDEQLKSGTASVVCYLNNFYPREAKVQWKVDNALQSGNSQESVTEQDSKDSTYSLWSTLTLSKADYEKHKVYACEVTHQGLSSPVTKSFNRGEC
heavy 2: QVQLVQSGAEVKKPGSSVKVSCKASGYTFTTYYLHWVRYAPGQGLEWMGWIYPGNVHAQYNEKFKGRVTITADKSTSTAYMELSSLRSEDTAVYYCARSWEGFPYWGRGTTVTVSSASTKGPSVFPLAPCSKSTSGGTAALGCLVKDYFPEPVTVSWNSGALTSGVHTFPAVLQSSGLYSLSSVVTVPSSSLGTQTYICNVNHKPSNTKVDKKVEPDSGDKTHTCPPCPAPEAAGGPSVFLFPPKPKDTLMISRTPEVTCVVVDVSHEDPEVKFNWYVDGVEVHNAKTKPREEQYNSTYRVVSVLTVLHQDWLNGKEYKCKVSNKALPAPIEKTISKAKGQPRRPRVYTLPPSREEMTKNQVSLVCLVKGFYPSDIAVEWESNGQPENNYKTTPPVLDSDGSFFLYSVLTVDKSRWQQGNVFSCSVMHEALHNHYTQKSLSLSPGK
light 2: DIQMTQSPSSLSASVGDRVTITCKASQNVGINVAWYQRKPGDAPKSLISSASYRYSGVPSRFSGSGSGTDFTLTISSLQPEDFATYFCQQYDTYPFTFGQGTKVEIKRTVAAPSVFIFPPSKEQLKSGTASVVCLLNNFYPREAKVQWKVDNALQSGNSQESVTEQDSKDSTYSLSSTLTLSKADYEKHKVYACEVTHQGLSSPVTKSFNRGEC
notes: control; also called cMet-BAH10 IgG1 heteromab; cMet-BAH10 IgG heteromab
As to B1, the figures for the EC50 (in assay [1]; with Protein A) were 0.57 nM and 0.48 nM, respectively. Further, in assay [2], the “% Elution” value worked out at 94.5%. The “% Flow Through (FT)” value in assay [2] is 5.5%.

These data come from patent US20230242671A1 (Eli Lilly, published 2023).
